Test results: patent US20150139900A1 (BIOARCTIC NEUROSCIENCE, published 2015)

How the values were obtained:
[1] = target: T1, HNE-stabilized human α-synuclein protofibrils (human, UniProt P37840 1-140); assay: competition ELISA
[2] = target: ONE-stabilized human α-synuclein protofibrils (human, UniProt P37840 1-140); assay: competition ELISA
α-synuclein monomers = α-synuclein monomers (human, UniProt P37840 1-140); assay: competition ELISA, antigen in solution against plate coated with protofibrils
Procedure: (§1) Specifically, a high-binding ELISA microtiter plate was coated with 100 μl/well of 1 μg/ml of α-synuclein protofibril, diluted in 1×PBS, sealed with adhesive sealer and incubated overnight at +4° C. Then, the coating solution was discarded and the residual binding capacity of the plate was blocked by adding 200 μl/well of PBS-Tween 20 (0.05%). The sealed plate was incubated for 60 min at room temperature (R.T.) by shaking at 900 rpm.
(§2) Meanwhile, peptide solution was prepared in 1×PBS-Tween 20 (0.05%) by diluting α-synuclein monomers or protofibril to a concentration of 140 nM. A 10-step 3× dilution series of α-synuclein monomers and protofibrils was performed in a volume of 50 μl in a round bottomed, low protein binding microtiter plate. To this solution, 50 μl of the tested antibody diluted in PBS-Tween 20 (0.05%) to a concentration of 100 ng/ml was added and allowed to interact for 60 min at R.T. by shaking at 900 rpm. Sub sequentially, these pre-incubated samples were added to the washed (3× wash) coated high-binding plate and allowed to incubate for 15 min at R.T. without shaking. The ELISA plate was then washed to remove unbound antibodies.
(§3) Finally, the ELISA plate was washed to remove unbound antibodies and 100 μl of ALP-substrate were added to each well. The plate was kept dark during incubation at R.T. until a yellow color developed. Absorbance values were measured on continuous mode at a wavelength of 405 nm every 15 minutes up to 120 minutes.

[3] = target: T1, HNE-stabilized human α-synuclein …; assay: as above
Procedure: as §1, §2, §3

Measured: binding result

B1: mAb48B11/8 (antibody, V domains shown)
VH: EVQLQESGPSLVKPSQTLSLTCSVTGDSFTSGYWNWIRKFPGNKLEYMGYIRYSGNTYYNPSLKSRISITRDTSKNQYYLQLISVTTEDTATFYCARSYYDYDRAWFAYWGQGALVTVSA
VL: DVVMTQTPLSLPVSLGDQASISCRSSQSLVHSNGNTYLHWYLQKPGQSPKLLIYKVSNRFSGVPDRFSGSGSGTDFTLKISRVEAEDLGVYFCSQSTHVPWTFGGGTKLEIK
notes: Mouse monoclonal antibody from hybridoma; also called BA4
binds: [1] | [2] | α-synuclein monomers

B2: mAb38F11/2-8 (antibody, V domains shown)
VH: EVMLVESGGGLVKPGGSLKLSCAASGFTFSSYAMSWVRQTPEKRLEWVATISNGGSYTYYPDSVKGRFTISRDNAKNTLYLQMSSLRSEDTAMYYCARHSDYSGAWFAYWGQGTLVTVSA
VL: QIVLTQSPAIMSASPGEKVTISCSASSSVSYMYWYQQKPGSSPKPWIYRTSNLASGVPARFSGSGSGTSYSLTISSMEAEDAATYYCQQYHSYPYTFGGGTKLEIK
notes: Mouse monoclonal antibody from hybridoma; also called BA3
binds: [1] | [2] | α-synuclein monomers

B3: mAb49/G (antibody, V domains shown)
VH: EVQLVETGGGLVQPKGSLKLSCATSGFTFNTYAMNWVRQAPGKGLEWVARIRTKSNDYATYYADSVKGRITISRDDSQSMLYLQMNNLKTEDTAMYYCVRVGYRPYAMDYWGQGTSVTVSS
VL: DVLMTQTPLSLPVSLGDQASISCRSSQNIVHSNGNTYLEWYLQKPGQSPTLLIYKVSNRFSGVPDRFSGSGSGTDFTLKISRVEAEDLGVYYCFQGSHVPLTFGAGTKLELK
notes: Mouse monoclonal antibody from hybridoma, detected with anti-mouse IgG; constant regions are not; also called BA1
binds: [2] | [3] | α-synuclein monomers
